Several values for one entry are separate records, joined by “and”; a condition that tells them apart may be missing. Equal values may be shown once.
Tests used:
[1] = target: CD40 (UniProt P25942); experiment: cell-based or functional assay
[2] = system: T cells (CD4 and CD8 positive); experiment: Bazedoxifene dose response, CD40L MFI in CD4 and CD8 positive T cells (day 4, freeze/thaw, restimulation); type: cell-based
Experimental: Dose response with Bazedoxifene in T cells were conducted for OT-001966, OT-001967, OT-001666. Expression of CD40L was measured at (a) day 4 after transduction, (b) after freezing and thawing the cells or (c) after freezing and thawing the cells followed by restimulation with CD3/CD28 beads. The CD40L MFI (median fluorescence intensity) within CD4 and CD8 positive subpopulations is shown in Table 34 and Table 35 respectively.

[3] = system: Jurkat cells; experiment: Linker length, ER regulated CD40L, % CD40L positive Jurkat cells; type: cell-based
Experimental: Jurkat cells were lentivirally transduced and 24 hours after transduction were treated with DMSO or 1 μM Bazedoxifene for another 24 hours and analyzed by flow cytometry for surface expression of CD40L. […] In Table 33, SR indicates stabilization ratio.

[4] = system: hCD45+ cells; experiment: hCD45+ cells in blood by FACS 14 days after T-cell infusion; type: in vivo, mice; conditions: cell number not given
Experimental: Increased expression of CD40L on CD19 positive CART cells may increase the efficacy of CAR+ T cells in vivo. To test this, 8-week old mice were injected with Nalm6-luc (1 million per mouse). On day 6, Nalm6 tumor burden was measured and mice were grouped to ensure that all groups had similar tumor sizes. Body weight and Bioluminescence Intensity (BLI) were measured twice a week. Blood and plasma were also collected for cytokine analysis, CD40L and IL12.
Human cells were analyzed by FACS (hCD45+) from the blood 14 days after T-cell infusion, which equals 21 days after tumor implant. The results are shown in Table 22 where M indicates million.

[5] = system: T cells (CD4+ and CD8+); experiment: Co-expression of CD40L and CD19 CAR on transduced T cells; type: cell-based
Description: The results for CD4+ and CD8+ cells and total cells are shown below.

[6] = system: Jurkat cells; experiment: CD40L shedding ELISA of supernatant, Jurkat cells with or without CD40-Fc receptor; type: cell-based; design: CD40L levels in supernatant: unit not given here; conditions: 6 hours
Experimental: Sheddases e.g. ADAM10/17 present in the tumor microenvironment can cleave CD40L thereby preventing the successful activation of CD40 by CD40L. […] OT-001669 which has a deletion of amino acids 1-13 of CD40L was designed to reduce internalization and OT-001668 which has a deletion of amino acids 110-116 of CD40L was designed to remove the ADAM10/17 sites. Jurkat cells stably expressing the full length construct OT-001661, OT-001669, or OT-001668 were cultured for 6 hours with 1.25 μg/ml recombinant human (h) or mouse (m) CD40-Fc receptor or left untreated and tested using an ELISA assay (Table 15).

[7] = system: HEK293T cells; experiment: Surface expression of CD40L trimerization mutants, transfected HEK293T cells (FACS); type: cell-based, human; conditions: transiently transfected HEK293T cells
Experimental: Mutations were engineered within CD40L payload to reduce the binding affinity of CD40L payload for the CD40L endogenously expressed by cells. Constructs OT-002078, OT-002079, OT-002080, OT-002081, OT-002082 were generated with the CD40L trimerization mutants. HEK293T cells were transiently transfected with the constructs and CD40L expression was measured by FACS.

[8] = system: Jurkat cells; experiment: DHFR regulated CD40L expression, transduced Jurkat cells (flow cytometry); type: cell-based
Experimental: Jurkat cells were transduced with lentiviruses corresponding to OT-001662, OT-001962, OT-001961, OT-001963. 24 hours after transduction, cells were split and treated with DMSO or 50 μM TMP for another 24 hours until flow cytometry-based analysis. The results are shown in Table 37 where SR indicates stabilization ration.

Chain of CD40 (P25942 21-277 limits assumed): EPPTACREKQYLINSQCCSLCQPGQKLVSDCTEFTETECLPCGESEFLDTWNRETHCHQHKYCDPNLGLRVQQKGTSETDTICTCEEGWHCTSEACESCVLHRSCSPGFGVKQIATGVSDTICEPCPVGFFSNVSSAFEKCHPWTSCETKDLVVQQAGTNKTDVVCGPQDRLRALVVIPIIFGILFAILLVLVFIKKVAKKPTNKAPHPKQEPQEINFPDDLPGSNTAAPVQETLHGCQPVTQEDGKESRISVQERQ

B1: OT-001666 (Met; ER (305-549 of WT, L384M, N413D, M421G, G521R, Y537S); Histidine; CD40L; stop) (ligand)
chain: MSLALSLTADQMVSALLDAEPPILYSEYDPTRPFSEASMMGLLTNLADRELVHMINWAKRVPGFVDLTLHDQVHLLECAWMEILMIGLVWRSMEHPGKLLFAPNLLLDRDQGKCVEGGVEIFDMLLATSSRFRMMNLQGEEFVCLKSIILLNSGVYTFLSSTLKSLEEKDHIHRVLDKITDTLIHLMAKAGLTLQQQHQRLAQLLLILSHIRHMSNKRMEHLYSMKCKNVVPLSDLLLEMLDAHRLHMIETYNQTSPRSAATGLPISMKIFMYLLTVFLITQMIGSALFAVYLHRRLDKIEDERNLHEDFVFMKTIQRCNTGERSLSLLNCEEIKSQFEGFVKDIMLNKEETKKENSFEMQKGDQNPQIAAHVISEASSKTTSVLQWAEKGYYTMSNNLVTLENGKQLTVKRQGLYYIYAQVTFCSNREASSQAPFIASLCLKSPGRFERILLRAANTHSSAKPCGQQSIHLGGVFELQPGASVFVNVTDPSQVSHGTGFTSFGLLKL
Question: Which results are given for B1?
Answer: SEAP reporter of HEK-Blue CD40 cells co-cultured 24 hours with transduced Jurkat cells plus 1 µM Bazedoxifene, given as Soluble CD40L (pg/ml) against a recombinant soluble CD40L standard [1]: 1820 pg/mL; CD40L expression (MFI) ([2]; CD4+ cells, Day 4, Bazedoxifene 0.01 nM): 372; CD40L expression (MFI) ([2]; CD4+ cells, Day 4, Bazedoxifene 0.1 nM): 420; CD40L expression (MFI) ([2]; CD4+ cells, Day 4, Bazedoxifene 1 nM): 427; CD40L expression (MFI) ([2]; CD4+ cells, Day 4, Bazedoxifene 10 nM): 476; CD40L expression (MFI) ([2]; CD4+ cells, Day 4, Bazedoxifene 100 nM): 732; CD40L expression (MFI) ([2]; CD4+ cells, Day 4, Bazedoxifene 1000 nM): 1397; CD40L expression (MFI) ([2]; CD4+ cells, Day 4, Bazedoxifene 10000 nM): 1274; CD40L expression (MFI) ([2]; CD4+ cells, Post Thaw, Bazedoxifene 0.01 nM): 134; CD40L expression (MFI) ([2]; CD4+ cells, Post Thaw, Bazedoxifene 0.1 nM): 138; CD40L expression (MFI) ([2]; CD4+ cells, Post Thaw, Bazedoxifene 1 nM): 145; CD40L expression (MFI) ([2]; CD4+ cells, Post Thaw, Bazedoxifene 10 nM): 162; CD40L expression (MFI) ([2]; CD4+ cells, Post Thaw, Bazedoxifene 100 nM): 208; CD40L expression (MFI) ([2]; CD4+ cells, Post Thaw, Bazedoxifene 1000 nM): 241; CD40L expression (MFI) ([2]; CD4+ cells, Post Thaw, Bazedoxifene 10000 nM): 537; CD40L expression (MFI) ([2]; CD4+ cells, Restim, Bazedoxifene 0.01 nM): 592; CD40L expression (MFI) ([2]; CD4+ cells, Restim, Bazedoxifene 0.1 nM): 658; CD40L expression (MFI) ([2]; CD4+ cells, Restim, Bazedoxifene 1 nM): 682; CD40L expression (MFI) ([2]; CD4+ cells, Restim, Bazedoxifene 10 nM): 658; CD40L expression (MFI) ([2]; CD4+ cells, Restim, Bazedoxifene 100 nM): 953; CD40L expression (MFI) ([2]; CD4+ cells, Restim, Bazedoxifene 1000 nM): 1688; CD40L expression (MFI) ([2]; CD4+ cells, Restim, Bazedoxifene 10000 nM): 1577; CD40L expression (MFI) ([2]; CD8+ cells, Day 4, Bazedoxifene 0.01 nM): 165; CD40L expression (MFI) ([2]; CD8+ cells, Day 4, Bazedoxifene 0.1 nM): 171; CD40L expression (MFI) ([2]; CD8+ cells, Day 4, Bazedoxifene 1 nM): 172; CD40L expression (MFI) ([2]; CD8+ cells, Day 4, Bazedoxifene 10 nM): 176; CD40L expression (MFI) ([2]; CD8+ cells, Day 4, Bazedoxifene 100 nM): 313; CD40L expression (MFI) ([2]; CD8+ cells, Day 4, Bazedoxifene 1000 nM): 601; CD40L expression (MFI) ([2]; CD8+ cells, Day 4, Bazedoxifene 10000 nM): 404; CD40L expression (MFI) ([2]; CD8+ cells, Post Thaw, Bazedoxifene 0.01 nM): 103; CD40L expression (MFI) ([2]; CD8+ cells, Post Thaw, Bazedoxifene 0.1 nM): 105; CD40L expression (MFI) ([2]; CD8+ cells, Post Thaw, Bazedoxifene 1 nM): 107; CD40L expression (MFI) ([2]; CD8+ cells, Post Thaw, Bazedoxifene 10 nM): 117; CD40L expression (MFI) ([2]; CD8+ cells, Post Thaw, Bazedoxifene 100 nM): 170; CD40L expression (MFI) ([2]; CD8+ cells, Post Thaw, Bazedoxifene 1000 nM): 213; CD40L expression (MFI) ([2]; CD8+ cells, Post Thaw, Bazedoxifene 10000 nM): 326; CD40L expression (MFI) ([2]; CD8+ cells, Restim, Bazedoxifene 0.01 nM): 238; CD40L expression (MFI) ([2]; CD8+ cells, Restim, Bazedoxifene 0.1 nM): 244; CD40L expression (MFI) ([2]; CD8+ cells, Restim, Bazedoxifene 1 nM): 263; CD40L expression (MFI) ([2]; CD8+ cells, Restim, Bazedoxifene 10 nM): 253; CD40L expression (MFI) ([2]; CD8+ cells, Restim, Bazedoxifene 100 nM): 354; CD40L expression (MFI) ([2]; CD8+ cells, Restim, Bazedoxifene 1000 nM): 567; CD40L expression (MFI) ([2]; CD8+ cells, Restim, Bazedoxifene 10000 nM): 458; Percent of Jurkat cells expressing CD40L ([3]; 1 μM Bazedoxifene): 30%; SR ([3]; 1 μM Bazedoxifene versus DMSO, % CD40L positive Jurkat cells): 3; Percent of Jurkat cells expressing CD40L ([3]; DMSO): 10%

B2: OT-001661: constitutively expressed full length CD40L construct (protein)
chain: MHMIETYNQTSPRSAATGLPISMKIFMYLLTVFLITQMIGSALFAVYLHRRLDKIEDERNLHEDFVFMKTIQRCNTGERSLSLLNCEEIKSQFEGFVKDIMLNKEETKKENSFEMQKGDQNPQIAAHVISEASSKTTSVLQWAEKGYYTMSNNLVTLENGKQLTVKRQGLYYIYAQVTFCSNREASSQAPFIASLCLKSPGRFERILLRAANTHSSAKPCGQQSIHLGGVFELQPGASVFVNVTDPSQVSHGTGFTSFGLLKL
Question: With B2 as the molecule, how does the “Percentage hCD45+ cells, Average” value [4] read?
Answer: Its value is 0.002%.

Question: What about the “Percentage hCD45+ cells, Individual values” [4] of the same molecule?
Answer: Its value is 0.00249% and 0.00331% and 0.00198% and 0%.

Question: And the “Percent of Cells co-expressing CD40L and CD19 CAR” value ([5]; All Cells)?
Answer: Its value is 0%.

Question: And the “Percent of Cells co-expressing CD40L and CD19 CAR” value ([5]; CD4+)?
Answer: Its value is 0%.

Question: And the “Percent of Cells co-expressing CD40L and CD19 CAR” value ([5]; CD8+)?
Answer: The value was 0%.

Question: And the “CD40L levels in supernatant” value ([6]; 1.25 μg/ml hCD40-Fc)?
Answer: Its value is 3599.72.

Question: And the “CD40L levels in supernatant” value ([6]; 1.25 μg/ml mCD40-Fc)?
Answer: The value was 2589.21.

Question: What about the “CD40L levels in supernatant” value ([6]; Untreated) of the same molecule?
Answer: Its value is 1382.06.

Question: And the “% CD40L positive” value [7]?
Answer: The value was 43.3%.

B3: OT-001662: CD40L construct with ecDHFR (M1del, R12Y, Y100I) DRD, ligand TMP (protein)
chain: MSGISLIAALAVDYVIGMENAMPWNLPADLAWFKRNTLNKPVIMGRHTWESIGRPLPGRKNIILSSQPGTDDRVTWVKSVDEAIAACGDVPEIMVIGGGRVIEQFLPKAQKLYLTHIDAEVEGDTHFPDYEPDDWESVFSEFHDADAQNSHSYCFEILERRHMIETYNQTSPRSAATGLPISMKIFMYLLTVFLITQMIGSALFAVYLHRRLDKIEDERNLHEDFVFMKTIQRCNTGERSLSLLNCEEIKSQFEGFVKDIMLNKEETKKENSFEMQKGDQNPQIAAHVISEASSKTTSVLQWAEKGYYTMSNNLVTLENGKQLTVKRQGLYYIYAQVTFCSNREASSQAPFIASLCLKSPGRFERILLRAANTHSSAKPCGQQSIHLGGVFELQPGASVFVNVTDPSQVSHGTGFTSFGLLKL
Question: With B3 as the molecule, how does the “% CD40L expression” value ([8]; TMP (50 μM)) read?
Answer: The value was 90%.

Question: And the SR ([8]; TMP (50 μM) versus Vehicle)?
Answer: Its SR is 90.

Question: And the “% CD40L expression” value ([8]; Vehicle (DMSO))?
Answer: Its value is 1%.

Reference: patent US20220175781A1, “CD40L COMPOSITIONS AND METHODS FOR TUNABLE REGULATION” (Obsidian Therapeutics, Inc., priority 2019, published 2022)
